# Test results as given in the nanobody polyreactivity screen of Harvey et al. (2022).
# Assay: yeast display, Sf9 membrane polyspecificity reagent, FACS + sequencing; frameworks hold sequencing errors
# Method in brief: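 A nanobody's polyreactivity label depends on the gate it was sorted from. Yeast display cells were stained with 10% biotinylated, detergent-solubilized Sf9 membrane reagent for 1 hour at 4 °C, enriched on streptavidin microbeads and sorted by FACS. The low and high (top ~1%) gates were set on anti-HA fluorescence for expression and streptavidin fluorescence for reagent binding.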
row,Sequence,polyreactivity (PSR sort gate)
1,QVQLVESGGGLVQAGGSLRLSCAASGSIFARYALGWYRQAPGKERELVDAITRSGVSTYSADSVKGRFTISRDNAKNTVYLQMNSLKPEDTAVYYCNADYPIRSSPYGYYYWGQGTQVTVSS,high polyreactivity
2,QVQLVESGGGLVQAGGSLRLSCAASGINFAYNAMGWYRQAPGKERELVATITDSGGSTSYADSVKGRFTISRDNAKNTVYLQMNSLKPEDTAVYYCAVLPVYWYWRNYVYLSGYDYWGQGTQVTVSS,low polyreactivity
3,QVQLVESGGGLVQAGGSLRVSCAASGSIFIRYAMGWYRQAPGKERELVAAIRSSGGSTYADSVKGRFTISRDNAKNTVYLQMISLKPEDTAVYYCAAGRSSKNSYSYPYYYWGQGTQVTVSS,high polyreactivity
4,QDQLVESGGGLVQAGGSLRLSCAASGSIFSYTMGCYRQAPAKQRELVAAITSGGITYYADSVKGRFSISRDNAKNTVYLQMNSLKPEDTAVYYCADGWSSYRFGYWGQGTQVTVSS,low polyreactivity
5,QVQLVESGGGLVQGGGSLRLSCADSGRTSDGYPMRWYRQATGKERELVAVITEGGGDTYYADSVKGRFTISRDHSKNTVYLKMNSLKPEDSAVYYCNAVEGSRLTYDYWGQGTQVTVSS,low polyreactivity
6,QVQLVESGGGLVQAGGSLRLSCAASGRIFDYYGMGWYRHAPGKERELVAAITSSGSRTYYADSVKGRFTISRDNAKNTVYLQMNSLKPEDTAVYYCARGGGRRKGLVDYWGQGTQVTVSS,low polyreactivity
7,QVQLVESGGGLVQAGGSLRLSCAASGYIFTVYAMGWYRQAPGKERELVAAINWSDGSTYYADSVKGRFTISRDNAKNTVYLQMNSLKPEDTAVYYCAAESRYQRYDYWGQGTQVTVSS,high polyreactivity
8,QVQLVESGGGLVQAGGSLRLSCAASGRIFPPYAMGWYRQAPGKERELVAAISCGGSRTYYADSVKGRFTISRDNAKNTVYLQMNSLKPEDTAVYYCAAKNYLAKSGDYWGQGTQVTVSS,high polyreactivity
9,QVQLVETGGRIVQAGGSLRLSCAASGRIMDTNAMGWYRQAPGKEREFVAAITWIDGSTYYADSVKGRFTISRDNATNTVYLQMNSLKPEDTAVYYWNVQYTVDRYPSPPYSETGDYWGQGTQVTVSS,low polyreactivity
10,QVQHVESGGGLVQAGGSLRLSCAASGFTFNYYAMGWYRQAPGKERELVAAITSSGGSTYYADSVKGRFTISRDNAKNTVYLQMNSLKPEDTAVYYCNAAVYAHRYIDGFDYWGQGTQVTVSS,high polyreactivity
11,QVQLEESGGGLVQAGGSLRLSSAASGSTFYIYVMGWYSQAPGKERELVARISSSGGSTYYADSVKGRFTISRDNAKNSVYLQMNSLKPVDTAVYYCNVDYGAWYDYWGQGTQVTVSS,low polyreactivity
12,QVQLVESGGGLVQAGGRLRLSCSASGLTVYRKAMGWSRQAPGKEREMVAAITSSGGRTYYADSVKGRFTISRDNAKNTVYLLMNSLKAEDTALYYCAADFCLGYYYWGQGTQVTVSS,high polyreactivity
13,QVQLVESGGGLVQAGGSLRLSCAASGSIFVINAMGWYRQAPGKERELVAAISYSGTGTYYADSVKGRFPISRDNAKITVYLQMNSLKPEDTAVYYCAADYYYRYRIYDYWGHGTQVTVSS,low polyreactivity
14,QVQLEESGGGLVQAGGSLRLSCAASGSIFDVYAIGWYRQAPGKERELVAGINSAGSTYYADSVKGRFTISRDNAKNTVYLQMNSLKPEDSAVYYCAAREYILTPGYQWYTYRGYDYWGQGTQVTVSS,low polyreactivity
15,QVQLVESGGGLVQAGGSLRLSCAASGRIFPTYAMVWYRQAPGKDRELVASISWSGGRTYYADSVKGRFSISRDNAKITVFLQMNSLKPEDTAVYYCAKRTYQGEGTVKRRYDYWGQVTQVTVSS,low polyreactivity
16,QVQLVESGGGLVQAGGSLRLSCDASGRTFGQNAMGWYRQAPGTERELVDAISASGSNTYYADSVKGRFTISRDNAKNTVYLQMNSLKPEDTAVYYCAKQVYRPGQQSRYDYWGQGTQVTVSS,low polyreactivity
17,QVQLVESGGGLVQAGGSLRLSCAASGRTFAGYAMGWYRHAPGKETELVAAITTSGGRTYYADSVKGRFTISRDYAKNTVYLQMNSLKPEDTAVYYCNVASKGRYARYAAEYGYWGQGTQVTVSS,high polyreactivity
18,QVQLVESGGGLVQAGRSLRLSCAASGLIFRYYPMGWYRQAPGKEREFVAAISGRGASTYYADSVKGRFTISRDYAKNSVYLQMNCLKPEDTAVYYCATFFPSAVVAFHMDYWGQGTQVTVSS,low polyreactivity
19,QVQLVESGGGLVQAGGSLRLTSAASGSIFQNYAMGWYRQAPGKERQLVAVIDDSGGITYYADSVKGRFTISRDNAKNTVYLEMNSLKPEDTAVYYCARNVNAKKVLGGFDSWGQGTQVTVSS,low polyreactivity
20,QVQLVESGGGLVQAGGSLRLSCAASGRNFSRYALGWYRQAPGKERELVAAINNGGSTYYADSVKGRFTISRDNAMNTVYLQMNSLKPEDTALYYCAKLWWSNFKPVEYWGQGTQVTVSS,low polyreactivity
21,QVQLVESGGGLVQAGGSLRLSCAASGRIFVTYAMGWYRQAPGKERELVAAIPWDGDSTYYADSVKGRFTISRDNAKNTVYLQMNSLKPEDTAVYYCNAKKFNSHVELGYDYWGQGTQVTVSS,low polyreactivity
22,QVQLVESGVGLVQAGGSLRLSCAASGFTFAFYAMGWYRQAPGKERELVAAISRRGGSTTYADSVKGRFTISRDNAKYTVYLQMNSLKPEDTAVYYCNAVSTRNPGPDYYYWGQGTQVTVSS,high polyreactivity

row,Sequence,polyreactivity (PSR sort gate)
1,QVQLVESGGGLVQAGGSLRLSCAASGRIFGRYAMGWYRQAPGKERELVASIRSRGGSTYYADSVKGRFTISRDNAKNTVYLQMNSLIPEDTAVYYCAKTVTSGYYYAGRYDYWGQGTQVTVSS,high polyreactivity
2,QVQLVESGGGLVQAGGSLRLSCAASGFTLSDYAMGGYRKAAGTERELVAGISSGGSTNYADSVKGRFTISRDNAKNTVYLQMNSLKPEDTAVYYCATRGTFQSHIRSGYWGQGTQVTVSS,high polyreactivity
3,QVQLVESGGGLVQAGGSLRLSCAASGSILTDNAMGWYRQAPGKERELVASITGSGGSTYYADSVKGRFTISRDNAKNTVYLQMNSLKPEDTAVYYCAASYRLRYGYWGQGTQVTVSS,high polyreactivity
4,QVQLVESGGGLVQAGGSLRLSCAASGSTFSWYTMGWYRQAPGKERELVAAISWSGGRTYYADSVKGRFTISRDNAKNTVYLQMNSLKPEDTAVYYCAAYDYWYSLGDYQFYYSGQGTQVTVSS,low polyreactivity
5,QVQLVESGGGLVQAGGSLRLSCAASGRTFSSYTMGWYRQAPGKEREMVAAISKSGASTYYADSVKGRFTISRDNAKNTVYLQMNSLKPEDTAVYYLAARAYPFKIDGYWGQGTQVTVSS,high polyreactivity
6,QVQLVESGGGLVQAGGSLRLSCAASGSIFYGYAMGWYRQAPGKERELVAAISRGGSTYADSVKGRFTISRDNAKNTVYLQMNSLKPEDTAVYYCARRYWNCPLRGWYGYWGQGTQVTVSS,high polyreactivity
7,QVQLVESGGGLVQAGGSLRLSCAASAITYAYYPMGWYRQAPGKETELVAGITDVGSTNYADSVKGRFTLSRDNAKNTVYLQMNSLKPEDTAGYYCAAEYDGPYYSFYPEQRYYWGQGTQVTVSS,low polyreactivity
8,QVQLVESGGGLVQAGGSLRLSSAASGSTFVVNAMGWYRQAPGKERELVAAITQSGGSTFYADSVKGRFTISRDNAKNTVYLQMNSLKPEDTAVYYWGQGTQLTVSS,low polyreactivity
9,QVQLVESGGGLVQAGGSLRLSCAASGSTFSRYAMGWYRQAPGKERELVAAISYSGDSTYYADSVKGRFTISRDYAKNTVYLQMNSLKPEDTAVYYCNVYSHYRGYYWGQGTQVTVSS,high polyreactivity
10,QVQLVESGGGLVQAGGSLRLSCAASGFIFSYYAMGRYRQAPGKEREMVAAITWSGSSTYYADSVKGRFTISRDNAKNTVYLQMYSLIPEDNAVYSCAASSGGFRHYFYTYNYWGQGTQVTVSS,high polyreactivity
11,QVQLVESGGGLVQAGGSLRLSCAASGFNFGNYAMGWYRQAPGKERELVAVISRGGSTYYADSVKGRFTISRDYAKNSVYLQMNSLKPEDTAVYFCAARAFPPYGYDYWGQGTQVTVSS,high polyreactivity
12,QVQLVDSGGGLVQAGGSLRLSCAASGIIFPVYAMGWYRQAPGKERELVAAITYSGDRTYYADSVKGRFTISRDNAKNTVYLQMNSLKPEDSAVYYCNARFGVWPYFYNEDDYWGQGTQVTVSS,low polyreactivity
13,QVQLVESGGGLVQAGGSLRLSCAASGRTFVGYAMGWYRQAPGKERELVAAITSGGSTYYADSVKGRFTISRDNAKNTVYLQMNSLKPEDTAVYYCATALYDWYSLEFDYWGQGTQVTVSS,low polyreactivity
14,QVQLVESGGGLVQAGGSLRLSCAASGSTFYYNAMGWYRQAPGKERELFAAITFTGGSTYADSVKGRFTISRDNAKNTVYLQMNSLKPEDTAVFYCAATIQGHDYLGSGYDYWGQGTQVTVSS,low polyreactivity
15,QVQLVESGGGLVQAGGSLRLSCAASGRTFSVNDMGRYRQAPGKEREMVAAISFSGGSTYYADSVKGRFTISRDDAKNTVYLQMNSLKPEDTAVYYCAAEAYPSWFYVITGFGIYDYWGQGTQVTVSS,high polyreactivity
16,QVQLVESGGGLVQAGGSLRLSCAASGSTFQGYDMGWYRQAPGKERELVAAINYSGGSTYYADSVKGRFTISRDNAKNTVYLQLNSLKPEDTAVFYCNADGYSQFWYEYYYCGQGTQVTVSS,high polyreactivity
17,QVQLVESGGGLVQAGGSLRLSCAASGSIFLVYAMGWYRQAPGKERELVAAISSDGDDTYYADSVKGRFTISRDNAKNTVYLQMNSLKPEDTAVYYCAAESYTYYADYGYGYWGQGTQVTVSS,high polyreactivity
18,QVQLVESGGGLVQAGGSLRLSCAASGTIFRWYAMGWYRQARGKEREFVAAITSSGGSTYYADSVKGRFTISRDNAKNTVYLQMNSLKPEDTAVYYCAARGWTANYEMDHWGQGTQVTVSS,high polyreactivity
19,QVQLVESGGGLVQAGGSLRLSCAASGNIFYYYAMGWYRQAPGKERELVAAISNGITYYADSVKGRFTISRDNAKNTVYLQMNSLKPEDTAVYYCAVDSDGNVRAVSGESLYDYWGQGTQVTVSS,low polyreactivity
20,QVQLVESGGGLVQAGGSLRLSCGASGSTFNWYTMGWYRQAPGKERELVDAISMNGGRTYYADSVKWRFTISRDKAKNTVYLQMNSLKPEDTAVYYCAAQISFYFAQYNLARFRGYYWGQGTQVTVSS,high polyreactivity
21,QVQLVESGGGLVQAGGSLRLSCAASGLTFYYYAKGWYRQAPGKERDFVAAISRSGGTTYYADSVKGRYTISRDNAKNTVYLQMNSLKPEDTAVYYCNAQWCRYWPSQVIFDYWGQGTQVTVSS,high polyreactivity
